Results on 2 molecules are retold here after article PMC2835468 (Matrix biology : journal of the International Society for …, 2009).

One may read the Ki as the dissociation constant of the complex between target and ligand, obtained from inhibition or displacement. A high value points to a looser hold on the target.

Experiment in all cases: enzyme inhibition kinetics
In experiment [1] the target is T1, ADAMTS4-2 (human ADAMTS-4 deletion mutant, C-terminal FLAG-tag) (human, UniProt O75173 213-685).
T1 sequence (looked up): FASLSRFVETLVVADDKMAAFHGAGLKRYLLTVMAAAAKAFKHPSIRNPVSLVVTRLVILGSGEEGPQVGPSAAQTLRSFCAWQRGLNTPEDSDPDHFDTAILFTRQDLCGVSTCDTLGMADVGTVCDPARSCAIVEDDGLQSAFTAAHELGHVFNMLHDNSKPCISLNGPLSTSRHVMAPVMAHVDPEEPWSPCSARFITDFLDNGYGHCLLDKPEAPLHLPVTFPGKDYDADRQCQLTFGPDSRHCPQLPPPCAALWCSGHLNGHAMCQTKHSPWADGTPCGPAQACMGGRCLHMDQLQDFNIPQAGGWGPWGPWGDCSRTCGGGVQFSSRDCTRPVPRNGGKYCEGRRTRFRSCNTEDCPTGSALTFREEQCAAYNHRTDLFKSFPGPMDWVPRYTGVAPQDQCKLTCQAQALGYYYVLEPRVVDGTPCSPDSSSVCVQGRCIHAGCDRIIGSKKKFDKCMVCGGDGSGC

For experiment [2], the target named is T2, ADAMTS5-2 (human ADAMTS-5 deletion mutant, C-terminal FLAG-tag) (human, UniProt Q9UNA0 262-874).
T2 sequence (looked up): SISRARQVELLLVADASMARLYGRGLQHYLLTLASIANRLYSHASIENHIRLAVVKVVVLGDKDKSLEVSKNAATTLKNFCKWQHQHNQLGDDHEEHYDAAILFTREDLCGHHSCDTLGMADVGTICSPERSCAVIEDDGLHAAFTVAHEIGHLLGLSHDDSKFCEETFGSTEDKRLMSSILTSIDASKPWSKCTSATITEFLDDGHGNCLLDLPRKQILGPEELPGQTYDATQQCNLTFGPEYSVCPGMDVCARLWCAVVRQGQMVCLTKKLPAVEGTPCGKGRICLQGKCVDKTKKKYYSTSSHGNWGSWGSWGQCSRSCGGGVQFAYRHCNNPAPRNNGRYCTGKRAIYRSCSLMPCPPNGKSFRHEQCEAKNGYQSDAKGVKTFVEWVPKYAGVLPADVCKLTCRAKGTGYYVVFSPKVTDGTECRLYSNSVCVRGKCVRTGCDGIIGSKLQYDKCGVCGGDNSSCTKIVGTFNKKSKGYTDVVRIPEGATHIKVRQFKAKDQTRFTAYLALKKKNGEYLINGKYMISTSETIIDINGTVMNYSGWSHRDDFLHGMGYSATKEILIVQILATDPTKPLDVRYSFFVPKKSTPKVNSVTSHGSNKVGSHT

In experiment [3] the target is T3, Catalytic domain of human MMP-1 (MMP-1cat) (human, UniProt P03956 100-269).
T3 sequence (looked up): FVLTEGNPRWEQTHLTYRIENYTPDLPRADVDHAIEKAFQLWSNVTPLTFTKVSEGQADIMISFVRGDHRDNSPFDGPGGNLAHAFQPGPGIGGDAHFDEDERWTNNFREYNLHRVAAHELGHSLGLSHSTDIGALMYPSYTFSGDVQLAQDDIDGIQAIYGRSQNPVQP

Experiment [4] concerns the target Catalytic domain of human MMP-3 (MMP-3cat) (human, UniProt P08254 100-272).

Sequence of Catalytic domain of human MMP-3 (MMP-3cat) (P08254 100-272): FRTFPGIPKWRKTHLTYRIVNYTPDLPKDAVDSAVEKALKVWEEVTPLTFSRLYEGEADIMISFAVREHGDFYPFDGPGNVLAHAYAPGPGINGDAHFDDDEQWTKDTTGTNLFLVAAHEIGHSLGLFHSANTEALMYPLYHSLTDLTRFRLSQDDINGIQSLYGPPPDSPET

B1: Non-glycosylated full-length human TIMP-3, FLAG-tagged, from HEK293 cells treated with tunicamycin (natural protein, UniProt P35625 24-211, looked up)
chain: CTCSPSHPQDAFCNSDIVIRAKVVGKKLVKEGPFGTLVYTIKQMKMYRGFTKMPHVQYIHTEASESLCGLKLEVNKYQYLLTGRVYDGKMYTGLCNFVERWDQLTLSQRKGLNYRYHLGCNCKIKSCYYLPCFVTSKNECLWTDMLSNFGYPGYQSKHYACIRQKGGYCSWYRGWAPPDKSIINATDP
In the case of B1, the figures for the Ki in experiment [1] and in experiment [2] were 0.2 nM and 1.37 nM, respectively.

B2: N-terminal domain of human TIMP-3 with C-terminal His-tag, expressed in Escherichia coli and folded in vitro (domain or fragment, UniProt P35625 24-144, looked up)
chain: CTCSPSHPQDAFCNSDIVIRAKVVGKKLVKEGPFGTLVYTIKQMKMYRGFTKMPHVQYIHTEASESLCGLKLEVNKYQYLLTGRVYDGKMYTGLCNFVERWDQLTLSQRKGLNYRYHLGCN
On to B2, for which the inhibition constant Ki was found to be 0.79 nM in experiment [1], 0.8 nM in experiment [3], 11.1 nM in experiment [4] and 0.32 nM in experiment [2].
